The chains are these.
B1: LINE1-full (parent)
chain: UACGUAGGUGGUUUUCCCCUGAUAGUGCUAAGGGGGCCUGGAAGUUUGGACUGGGCAGAGCUCAACACAGCGUGGCAAAGUGGCUGUGGCUAGACUGCCUCUCUGGAUUCCUCGUCACUCAGCAGGGCAUCUCUGAGAGAAAUGCC

In this data set the parent is B1. The data set is described as follows: self-cleavage, relative activity (ratio to wild type); higher = more cleavage; in vitro, sequencing; the parent is a self-cleaving ribozyme.
Turning to UACGUAGGUGGUUUUCCCCCGAUAGUGCUAAGGGGGCCUGGAAGUUUGGACUGGGCAGAGCUCAACACAGCGUGGCAAAGUGGCUGUGGCUAGACUGCCUCUCUGGAUUCCUCGACACUCAGCAGGGCAUCUCUGAGAGAAAUGCC [U20C U115A], the self-cleavage stood at 1.54.
Under UACGUAGGUGGUUUUCCCCCGAUAGUGCUAAGGGGGCCUGGAAGUUUGGACUGGGCAGAGCUCAACACAGCGUGGCAAAGUGGCUGUGGCUAGACUGCCUCUCUGGAUCCCUCGUCACUCAGCAGGGCAUCUCUGAGAGAAAUGCC [U20C U109C] stands 1.34; under UACGUAGGUGGUUUUCCCCCGAUAGUGCUAAGGGGGCCUGGAAGUUUGGACUGGGCAGAGCUCAACACAGCGUGGCAAAGUGGCUGUGGCUAGACUGCCUCUCUGGAUACCUCGUCACUCAGCAGGGCAUCUCUGAGAGAAAUGCC [U20C U109A], 1.54; under UACGUAGGUGGUUUUCCCCCGAUAGUGCUAAGGGGGCCUGGAAGUUUGGACUGGGCAGAGCUCAACACAGCGUGGCAAAGUGGCUGUGGCUAGACUGCCUCUCUGGAUUCCGCGUCACUCAGCAGGGCAUCUCUGAGAGAAAUGCC [U20C U112G], 0.54.
As for UACGUAGGUGGUUUUCCCCGGAUAGUGCUAAGGGGGCCUGGAAGUUUGGACUGGGCAGAGCUCAACACGGCGUGGCAAAGUGGCUGUGGCUAGACUGCCUCUCUGGAUUCCUCGUCACUCAGCAGGGCAUCUCUGAGAGAAAUGCC [U20G A69G], the self-cleavage stood at 1.05.
UACGUAGGUGGUUUUCCCCCGAUAGUGCUAAGGGGGCCUGGAAGUUUGGACUGGGCAGAGCUCAACACAGCGUGGCAAAGUGGCUGUGGCUAGACCGCCUCUCUGGAUUCCUCGUCACUCAGCAGGGCAUCUCUGAGAGAAAUGCC [U20C U96C]: the self-cleavage was found to be 0.08.
Take UACGUAGGUGGUUUUCCCCCGAUAGUGCUAAGGGGGCCUGGAAGUUUGGACUGGGCAGAGCUCAACACAGCGUGGCAAAGUGGCUGUGGCUAGACUGCCUCUCCGGAUUCCUCGUCACUCAGCAGGGCAUCUCUGAGAGAAAUGCC [U20C U104C]: the self-cleavage was determined as 1.51.
UACGUAGGUGGUUUUCCCCCGAUAGUGCUAAGGGGGCCUGGAAGUUUGGACUGGGCAGAGCUCAACACAGCGUGGCAAAGUGGCUGUGGCUAGACUGCCUCUCUGGAUUCCUCGUCACUCAGCAGGGCAUCUCUGAGAGAAAAGCC [U20C U143A]: the self-cleavage was found to be 1.5.
As for UACGUAGGUGGUUUUCCCCGGAUAGUGCUAAGGGGGCCUGGAAGUUUGGACUGGGCAGAGCUCAACACAGCGUGGCAAAGUGGCUGUGGCUAGACUGCCUCUCUGGAUUCCUCGUCACUCAGCAGGGCAUCUCUGUGAGAAAUGCC [U20G A136U], the self-cleavage came out at 0.98.
Consider UACGUAGGUGGUUUUCCCCCGAUAGUGCUAAGGGGGCCUGGAAGUUUGGACUGGGCAGAGCUCAACACAGCGUGGCAAAGUGGCUGUGGCUAGACUGCCUCUCUGGAUUCCUCGUCACUCAGCAGGGCAUCGCUGAGAGAAAUGCC [U20C U132G], for which the self-cleavage came to 0.46.
Regarding UACGUAGGUGGUUUUCCCCGGAUAGUGCUAAGGGGGCCUGGAAGUUUGGACUGGGCAGAGCUCAACACAGCGUGGCAAGGUGGCUGUGGCUAGACUGCCUCUCUGGAUUCCUCGUCACUCAGCAGGGCAUCUCUGAGAGAAAUGCC [U20G A79G], the self-cleavage was 1.17.
Take UACGUAGGUGGUUUUCCCCCGAUAGUGCUAAGGGGGCCUGGAAGUAUGGACUGGGCAGAGCUCAACACAGCGUGGCAAAGUGGCUGUGGCUAGACUGCCUCUCUGGAUUCCUCGUCACUCAGCAGGGCAUCUCUGAGAGAAAUGCC [U20C U46A]: the self-cleavage stood at 0.85.
In the case of UACGUAGGUGGUUUUCCCCCGAUAGUGCUAAGGGGGCCUGGAAGUGUGGACUGGGCAGAGCUCAACACAGCGUGGCAAAGUGGCUGUGGCUAGACUGCCUCUCUGGAUUCCUCGUCACUCAGCAGGGCAUCUCUGAGAGAAAUGCC [U20C U46G], the self-cleavage amounted to 1.52.
Take UACGUAGGUGGUUUUCCCCGGAUAGUGCUAAGGGGGCCUGGAAGUUUGGACUGGGCAGAGCUCAACACAGCGUGGCAAAGUGGCUGUGGCUAGACUGCCUCUCUGGAUUCCUCGUCACUCAGCAGGGCAUCUCUGAGAGAAGUGCC [U20G A142G]: the self-cleavage amounted to 1.09.
For the variant UACGUAGGUGGUUUUCCCCCGAUAGUGCCAAGGGGGCCUGGAAGUUUGGACUGGGCAGAGCUCAACACAGCGUGGCAAAGUGGCUGUGGCUAGACUGCCUCUCUGGAUUCCUCGUCACUCAGCAGGGCAUCUCUGAGAGAAAUGCC [U20C U29C], the self-cleavage amounted to 1.27.
Under UACGUAGGUGGUUUUCCCCCGAUAGUGCAAAGGGGGCCUGGAAGUUUGGACUGGGCAGAGCUCAACACAGCGUGGCAAAGUGGCUGUGGCUAGACUGCCUCUCUGGAUUCCUCGUCACUCAGCAGGGCAUCUCUGAGAGAAAUGCC [U20C U29A] stands 0.62; under UACGUAGGUGGUUUUCCCCGGGUAGUGCUAAGGGGGCCUGGAAGUUUGGACUGGGCAGAGCUCAACACAGCGUGGCAAAGUGGCUGUGGCUAGACUGCCUCUCUGGAUUCCUCGUCACUCAGCAGGGCAUCUCUGAGAGAAAUGCC [U20G A22G], 0.41; under UACGUAGGUGGUUUUCCCCGGAUAGUGCUAAGGGGGCCUGGAAGUUUGGACUGGGCAGAGCUCAACACAGCGUGGCAAAGUGGCUGUGGCUAGACUGCCUCUCUGGAUUCCUCGUCACUCAGCAGGGCAUCUCUGAGAGAAAUGCC [U20G], 1.1.
Take UACGUAGGUGGUUUUCCCCCGAUAGUGCUAAGGGGGCCUGGAAGUUUGGACUGGGCAGAGCCCAACACAGCGUGGCAAAGUGGCUGUGGCUAGACUGCCUCUCUGGAUUCCUCGUCACUCAGCAGGGCAUCUCUGAGAGAAAUGCC [U20C U62C]: the self-cleavage stood at 0.1.
For UACGUAGGUGGUUUUCCCCCGAUAGUGCUAAGGGGGCCUGGAAGUUUGGACUGGGCAGAGCUCAACACAGCGUGGCAAAGUGGCUGUGGCUAGACUGCCUCUCUGGACUCCUCGUCACUCAGCAGGGCAUCUCUGAGAGAAAUGCC [U20C U108C], the self-cleavage stood at 1.62.
Regarding UACGUAGGUGGUUUUCCCCGGAUAGUGCUAAGGGGGCCUGGAAGUUUGGACUGGGCAGAGCUCAACACAGCGUGGCGAAGUGGCUGUGGCUAGACUGCCUCUCUGGAUUCCUCGUCACUCAGCAGGGCAUCUCUGAGAGAAAUGCC [U20G A77G], the self-cleavage came to 1.36.
With UACGUAGGUGGUUUUCCCCCGAUAGUGCUAAGGGGGCCCGGAAGUUUGGACUGGGCAGAGCUCAACACAGCGUGGCAAAGUGGCUGUGGCUAGACUGCCUCUCUGGAUUCCUCGUCACUCAGCAGGGCAUCUCUGAGAGAAAUGCC [U20C U39C], the self-cleavage turned out to be 1.28.
Regarding UACGUAGGUGGUUUUCCCCCGAUAGUGCUAAGGGGGCCAGGAAGUUUGGACUGGGCAGAGCUCAACACAGCGUGGCAAAGUGGCUGUGGCUAGACUGCCUCUCUGGAUUCCUCGUCACUCAGCAGGGCAUCUCUGAGAGAAAUGCC [U20C U39A], the self-cleavage is 1.48.
Turning to UACGUAGGUGGUUUUCCCCGGAUAGUGCUAAGGGGGCCUGGAAGUUUGGACUGGGCAGAGCUCAACACAGCGUGGCAAAGUGGCUGUGGCUAGACUGCCUCUCUGGAUUCCUCGUCACUCGGCAGGGCAUCUCUGAGAGAAAUGCC [U20G A121G], the self-cleavage was 1.27.
With UACGUAGGUGGUUUUCCCCCGAUAGUGCUAAGGGGGCCUGGAAGUUUGGACUGGGCAGAGCUCAACACAGCGUGGCAAAGUGGCUGUGGCUAGACUGCCUCCCUGGAUUCCUCGUCACUCAGCAGGGCAUCUCUGAGAGAAAUGCC [U20C U102C], the self-cleavage turned out to be 1.25.
Take UACGUAGGUGGUUUUCCCCCGAUAGUGCUAAGGGGGCCUGGAAGUUUGGACUGGGCAGAGCUCAACACAGCGUGGCAAAGUGGCUGUGGCUAGACUGCCUCACUGGAUUCCUCGUCACUCAGCAGGGCAUCUCUGAGAGAAAUGCC [U20C U102A]: the self-cleavage worked out at 1.21.
For the variant UACGUAGGUGGUUUUCCCCGGAUAGUGCUAAGGGGGCCUGGAAGUUUGGACUGGGCAGAGCUCAACUCAGCGUGGCAAAGUGGCUGUGGCUAGACUGCCUCUCUGGAUUCCUCGUCACUCAGCAGGGCAUCUCUGAGAGAAAUGCC [U20G A67U], the self-cleavage was 0.11.
Turning to UACGUAGGUGGUUUUCCCCCGAUAGUGCUAAGGGGGCCUGGAAGUUUGGACUGGGCAGAGCUCAACACAGCGUGGCAAAGUGGCUGUGGCUAGACUGCCACUCUGGAUUCCUCGUCACUCAGCAGGGCAUCUCUGAGAGAAAUGCC [U20C U100A], the self-cleavage worked out at 0.81.
In the case of UACGUAGGUGGUUUUCCCCCGAUAGUGCUAAGGGGGCCUGGAAGUUUGGACUGGGCAGAGCUCAACACAGCGUGGCAAAGUGGCUGUGGCUAGACUGCCCCUCUGGAUUCCUCGUCACUCAGCAGGGCAUCUCUGAGAGAAAUGCC [U20C U100C], the self-cleavage worked out at 1.69.
On to UACGUAGGUGGUUUUCCCCCGAUAGUGCUAAGGGGGCCUGGAAGUUUGGACUGGGCAGAGCUCAACACAGCGUGGCAAAGUGGCUGUGGCAAGACUGCCUCUCUGGAUUCCUCGUCACUCAGCAGGGCAUCUCUGAGAGAAAUGCC [U20C U91A], for which the self-cleavage was 0.55.
As for UACGUAGGUGGUUUUCCCCCGAUAGUGCUAAGGGGGCCUGGAAGUUUGGACUGGGCAGAGCUCAACACAGCGUGGCAAAGUGGCUGUGGCCAGACUGCCUCUCUGGAUUCCUCGUCACUCAGCAGGGCAUCUCUGAGAGAAAUGCC [U20C U91C], the self-cleavage was 0.76.
Under UACGUAGGUGGUUUUCCCCCGAUAGUGCUAAGGGGGCCUGGAAGUUAGGACUGGGCAGAGCUCAACACAGCGUGGCAAAGUGGCUGUGGCUAGACUGCCUCUCUGGAUUCCUCGUCACUCAGCAGGGCAUCUCUGAGAGAAAUGCC [U20C U47A] stands 1.19.
Turning to UACGUAGGUGGUUUUCCCCCGAUAGUGCUAAGGGGGCCUGGAAGUUUGGACUGGGCAGAGCUCAACACAGCGUGGCAAAGUGGCUGCGGCUAGACUGCCUCUCUGGAUUCCUCGUCACUCAGCAGGGCAUCUCUGAGAGAAAUGCC [U20C U87C], the self-cleavage is 0.24.
As to UACGUAGGUGGUUUUCCCCCGAUAGUGCUAAGGGGGCCUGGAAGUUUGGACUGGGCAGAGCUCAACACAGCGUGGCAAAGUGGCUGAGGCUAGACUGCCUCUCUGGAUUCCUCGUCACUCAGCAGGGCAUCUCUGAGAGAAAUGCC [U20C U87A], the self-cleavage came out at 0.1.
For UACGUAGGUGGUUUUCCCCCGAUAGUGCUAAGGGGGCCUGGAAGUUUGGACAGGGCAGAGCUCAACACAGCGUGGCAAAGUGGCUGUGGCUAGACUGCCUCUCUGGAUUCCUCGUCACUCAGCAGGGCAUCUCUGAGAGAAAUGCC [U20C U52A], the self-cleavage was found to be 0.69.
Turning to UACGUAGGUGGUUUUCCCCCGAUAGUGCUAAGGGGGCCUGGAAGUUUGGACUGGGCAGAGCUCAACACAGCGUGGCAAAGUGGCUGUGGCUAGACUGCCUCUCUGGAUUCCUCGUCACUCAGCAGGGCAUCUCCGAGAGAAAUGCC [U20C U134C], the self-cleavage was determined as 1.57.
For the variant UACGUAGGUGGUUUUCCCCCGAUAGUGCUAAGGGGGCCUGGAAGUUUGGACUGGGCAGAGCUCAACACAGCGUGGCAAAGUGGCUGUGGCUAGACUGCCUCUCUGGAUUCCUCGUCACUCAGCAGGGCAUCUCGGAGAGAAAUGCC [U20C U134G], the self-cleavage stood at 0.77.
UACGUAGGUGGUUUUCCCCCGAUAGUGCUAAGGGGGCCUGGAAGUUUGGACUGGGCAGAGCUCAACACAGCGUGGCAAAGUGGCUGUGGCUAGACUGCCUCUCUGGAUUCCUCGUCACUCAGCAGGGCAUCUCAGAGAGAAAUGCC [U20C U134A]: the self-cleavage stood at 0.96.
UACGUAGGUGGUUUUCCCCGGAUAGUGCUAAGGGGGCCUGGAAGUUUGGACUGGGCUGAGCUCAACACAGCGUGGCAAAGUGGCUGUGGCUAGACUGCCUCUCUGGAUUCCUCGUCACUCAGCAGGGCAUCUCUGAGAGAAAUGCC [U20G A57U]: the self-cleavage amounted to 0.21.

Source of the values: the RNAGym collection of RNA variant scans (doi:10.7554/elife.90254).
